Assay results reported in article PMC9669019, “Molecular basis for integrin adhesion receptor binding to p21-activated kinase 4 (PAK4)” (Communications Biology, 2022).

B1: D444A: GFP-tagged PAK4 D444A mutant; catalytic domain (Fig 4G) or full-length (Fig 4H) (protein, UniProt O96013 1-591, looked up, variant D444A)
Serine/threonine-protein …: MFGKRKKRVEISAPSNFEHRVHTGFDQHEQKFTGLPRQWQSLIEESARRPKPLVDPACITSIQPGAPKTIVRGSKGAKDGALTLLLDEFENMSVTRSNSLRRDSPPPPARARQENGMPEEPATTARGGPGKAGSRGRFAGHSEAGGGSGDRRRAGPEKRPKSSREGSGGPQESSRDKRPLSGPDVGTPQPAGLASGAKLAAGRPFNTYPRADTDHPSRGAQGEPHDVAPNGPSAGGLAIPQSSSSSSRPPTRARGAPSPGVLGPHASEPQLAPPACTPAAPAVPGPPGPRSPQREPQRVSHEQFRAALQLVVDPGDPRSYLDNFIKIGEGSTGIVCIATVRSSGKLVAVKKMDLRKQQRRELLFNEVVIMRDYQHENVVEMYNSYLVGDELWVVMEFLEGGALTDIVTHTRMNEEQIAAVCLAVLQALSVLHAQGVIHRDIKSASILLTHDGRVKLSDFGFCAQVSKEVPRRKSLVGTPYWMAPELISRLPYGPEVDIWSLGIMVIEMVDGEPPYFNEPPLKAMKMIRDNLPPRLKNLHKVSPSLKGFLDRLLVRDPAQRATAAELLKHPFLAKAGPPASIVPLMRQNRTR
modifications: GFP tag; catalytic domain or full-length
B2: E512R: GFP-tagged PAK4 E512R mutant; catalytic domain (Fig 4G) or full-length (Fig 4H) (protein, UniProt O96013 1-591, looked up, variant E512R)
Serine/threonine-protein …: MFGKRKKRVEISAPSNFEHRVHTGFDQHEQKFTGLPRQWQSLIEESARRPKPLVDPACITSIQPGAPKTIVRGSKGAKDGALTLLLDEFENMSVTRSNSLRRDSPPPPARARQENGMPEEPATTARGGPGKAGSRGRFAGHSEAGGGSGDRRRAGPEKRPKSSREGSGGPQESSRDKRPLSGPDVGTPQPAGLASGAKLAAGRPFNTYPRADTDHPSRGAQGEPHDVAPNGPSAGGLAIPQSSSSSSRPPTRARGAPSPGVLGPHASEPQLAPPACTPAAPAVPGPPGPRSPQREPQRVSHEQFRAALQLVVDPGDPRSYLDNFIKIGEGSTGIVCIATVRSSGKLVAVKKMDLRKQQRRELLFNEVVIMRDYQHENVVEMYNSYLVGDELWVVMEFLEGGALTDIVTHTRMNEEQIAAVCLAVLQALSVLHAQGVIHRDIKSDSILLTHDGRVKLSDFGFCAQVSKEVPRRKSLVGTPYWMAPELISRLPYGPEVDIWSLGIMVIEMVDGRPPYFNEPPLKAMKMIRDNLPPRLKNLHKVSPSLKGFLDRLLVRDPAQRATAAELLKHPFLAKAGPPASIVPLMRQNRTR
modifications: GFP tag

What was measured:
integrin β5 tail [1] = experiment: Pull-down of wild-type and mutated GFP-PAK4 catalytic domain by wild-type integrin β5 tail; format: binding; settings: for Effect of PAK4 mutation on pull-down by integrin β5: catalytic domain (Fig. 4g) and full-length PAK4 (Fig. 4h)
Procedure: (§1) Pull down assays were performed as previously described[45],[60]. Briefly, constructs encoding an N-terminal His-tag followed by a helical region, a 4-glycine spacer, and an integrin cytoplasmic tail sequence were produced in BL21 (DE3) bacteria. Following bacterial cell lysis, recombinant protein was bound to Ni-NTA beads, eluted with imidazole, dialyzed and further purified by reverse-phase high-performance liquid chromatography (HPLC). Purified protein was lyophilized for storage and was used to coat fresh Ni-NTA beads to generate an affinity matrix for pull-down assays.
(§2) For pulldowns from cell lysates, human PAK4 constructs were generated in pEGFP (Takara Bio Inc.) by PCR amplification from a pLX304 PAK4 isoform 1 (Uniprot O96013-1) construct kindly provided by Michael Calderwood (Dana-Farber Cancer Institute). Mutations and deletions were introduced by QuikChange mutagenesis or PCR amplification. Chinese hamster ovary (CHO) cells were seeded on 10 cm tissue culture dishes and transiently transfected with GFP-tagged constructs using polyethylenimine (Polysciences). After 24 h, cells were harvested and lysed in buffer X (1 mM NaVO4, 50 mM NaF, 40 mM sodium pyrophosphate, 50 mM NaCl, 150 mM sucrose, 10 mM Pipes, pH 6.8) containing 0.5% Triton X-100, 0.2% deoxycholic acid, and complete EDTA-free protease inhibitor mixture (Roche, Indianapolis, IN, USA) for 15 min at 4 °C. After clarification by centrifugation, lysate was diluted in buffer X-T (buffer X with 0.05% Triton X-100) and incubated with His-tagged integrin tails coupled to Ni-NTA beads for 4 h with rocking at 4 °C. For experiments using purified PAK4cat, protein was incubated with His-tagged integrin tails coupled to Ni-NTA beads in buffer X-T for 2 h with rocking at 4 °C. Beads were then washed three times with buffer X-T, and bound proteins were fractionated by reducing SDS-PAGE and analyzed by immunoblotting with anti-GFP antibodies (600-101-215, Rockland). Immunoblots were imaged on an Odyssey IR imaging system (Li-Cor; Lincoln, NE, USA) and analyzed using Image Studio Lite (Li-Cor; Lincoln, NE, USA). For the quantification of binding from immunoblots, the fluorescence intensity of the band corresponding to bound material was quantified as a fraction of the fluorescence of the input material band for each condition. Loading of integrin tails was assessed by Coomassie Blue staining. Data were analyzed using GraphPad Prism.

integrin β5 tail [2] = experiment: Pull-down of wild-type and mutated full-length GFP-PAK4 by wild-type integrin β5 tail; format: binding
Procedure: as §1, §2

[3] = Figure 4G source data, PAK4 catalytic domain, replicate 1

Row | Molecule | Binding to wild-type integrin β5 tail, normalized to cat-WT (integrin β5 tail [1]; [3]) | Binding to wild-type integrin β5 tail, normalized to cat-WT (integrin β5 tail [1]; Figure 4G, replicate 2) | Binding to wild-type integrin β5 tail, normalized to cat-WT (integrin β5 tail [1]; Figure 4G, replicate 3) | Binding to wild-type integrin β5 tail, normalized to cat-WT (integrin β5 tail [1]; Figure 4G, replicate 4) | Binding to wild-type integrin β5 tail, normalized to cat-WT (integrin β5 tail [1]; Figure 4G, replicate 5) | Binding to wild-type integrin β5 tail, normalized to cat-WT (integrin β5 tail [1]; Figure 4G, replicate 6) | Binding to wild-type integrin β5 tail, normalized to cat-WT (integrin β5 tail [1]; Figure 4G, replicate 7) | Effect of PAK4 mutation on pull-down by integrin β5 (integrin β5 tail [1]) | Binding to wild-type integrin β5 tail, normalized to FL-WT (integrin β5 tail [2]; Figure 4H source data, full-length PAK4, experiment row r4) | Binding to wild-type integrin β5 tail, normalized to FL-WT (integrin β5 tail [2]; Figure 4H, experiment row r5) | Binding to wild-type integrin β5 tail, normalized to FL-WT (integrin β5 tail [2]; Figure 4H, experiment row r14) | Binding to wild-type integrin β5 tail, normalized to FL-WT (integrin β5 tail [2]; Figure 4H, experiment row r15) | Binding to wild-type integrin β5 tail, normalized to FL-WT (integrin β5 tail [2]; Figure 4H, experiment row r6) | Binding to wild-type integrin β5 tail, normalized to FL-WT (integrin β5 tail [2]; Figure 4H, experiment row r7) | Binding to wild-type integrin β5 tail, normalized to FL-WT (integrin β5 tail [2]; Figure 4H, experiment row r8) | Binding to wild-type integrin β5 tail, normalized to FL-WT (integrin β5 tail [2]; Figure 4H, experiment row r9)
1 | B1 | 0.04069 | 0.001166 | 0.2433 | 0.09577 | 3.582e-6 | 0.09749 | 0.0832 | strong inhibition | 0.235 | 0.008 | 0.233 | 0.015 |  |  |  | 
2 | B2 | 0.1343 | 0.09959 | 0.2543 | 0.09217 | 0.08446 | 0.3379 |  | strong inhibition |  | 0.472 |  |  | 0.89 | 0.486 | 0.106 | 0.64
